Legend:
ADAM17 [1] = test: Soluble CD16b released from transfected HEK293 cells, ELISA of media supernatant (shedding); type: cell-based, human
Method: (§1) FIG. 3. Effects of the engineered S197P mutation on CD16a and CD16b shedding. Transfected HEK293 (human embryonic kidney) cells separately expressed CD16b and CD16b/S197P (A) or CD16a and CD16a/S197P (B) at similar levels, as determined by flow cytometry (left panels). The different transfectants were treated with or without PMA (15 ng/ml for 30 minutes at 37° C.) and soluble levels of CD16 in the media supernatant were quantified by ELISA (right panels). Each treatment condition was repeated three times for each experiment and the data are representative of three independent experiments. Bar graphs show mean±SD. Statistical significance is indicated as ***P<0.001. (C) Transfected HEK293 cells expressed L-selectin (CD62L) or L-selectin and CD16b/S197P. Surface levels of L-selectin and CD16b/S197P on transfected and mock-transfected cells were measured using flow cytometry (histogram plots). Transfectants expressing L-selectin or L-selectin and CD16b/S197P were incubated in the presence or absence of PMA for 30 minutes at 37° C., and the mean fluorescence intensity (MFI) of L-selectin staining determined (bar graph). Each treatment condition was repeated three times for each experiment and the data are representative of two independent experiments. Bar graphs show mean±SD. Statistical significance is indicated as *P<0.05. For all histogram plots, the x-axis=Log 10 fluorescence and the y-axis=cell number.
HEK293 cells (a human embryonic kidney cell line) and NK92 cells (a human NK cell line) (ATCC, Manassas, Va.) were cultured according to the depository's instructions. HEK293 cells were transiently transfected with pcDNA3.1 with or without CD16b, CD16b/S197P, and/or L-selectin using Lipofectamine 2000 (Invitrogen, Carlsbad, Calif.) according to the manufacturer's instructions. HEK293 cells stably expressing human FcRγ were transiently transfected with pcDNA3.1 with or without CD16a or CD16a/S197P by the same approach. NK92 cells were stably transduced with pBMN-IRES-EGFP with or without CD16a or CD16a/S197P by retrovirus generation and infection procedures described previously (Matala et al., 2001, J Immunol. 167:1617-1623; Walcheck et al., 2003, J Leukoc Biol. 74:389-394; Wang et al., 2009, J Immunol. 182:2449-2457). Construct expression was assessed by EGFP fluorescence and CD16 staining, as determined by flow cytometry. Human iPSCs (UCBiPS7, derived from umbilical cord blood CD34 cells) were maintained on mouse embryonic fibroblasts (Knorr et al., 2013, Stem Cells Transl Med. 2:274-283; Ni et al., 2014, Stem Cells 32:1021-1031). Stable expression of CD16a or CD16a/S197P was performed using a Sleeping Beauty transposon system as previously described (Wilber et al., 2007, Stem Cells 25:2919-2927; Tian et al., 2009, Stem Cells 27:2675-2685). […]

ADAM17 [2] = test: L-selectin surface down-regulation in HEK293 transfectants expressing or lacking CD16b/S197P (ADAM17 activity control); type: cell-based, human; conditions: HEK293 cells expressing versus lacking CD16b/S197P; PMA 30 minutes at 37° C.
Method: as §1, with “(C) Transfected HEK293 cells expressed L-selectin (CD62L) or L-selectin and CD16b/S197P.” left out, “Each treatment condition was repeated three times for each experiment and the data are representative of two independent experiments. Bar graphs show mean±SD. Statistical significance is indicated as *P<0.05.” left out
HEK293 cells (a human embryonic kidney cell line) and NK92 cells (a human NK cell line) (ATCC, Manassas, Va.) were cultured according to the depository's instructions. […] Construct expression was assessed by EGFP fluorescence and CD16 staining, as determined by flow cytometry. […]

[3] = HEK293 transfectants treated with PMA 15 ng/ml for 30 minutes at 37° C.
[4] = untreated transfected HEK293 cells

Row | Molecule | soluble levels of CD16 in media supernatant (ADAM17 [1]; [3]) | soluble levels of CD16 in media supernatant (ADAM17 [1]; [4]) | L-selectin down-regulation following activation with PMA (ADAM17 [2])
1 | CD16b: Wild-type human IgG Fc receptor CD16b (FcγRIIIb), NA1 allelic variant, recombinant comparator (protein, listed as Homo sapiens) MWQLLLPTALLLLVSAGMRTEDLPKAVVFLEPQWYRVLEKDSVTLKCQGAYSPEDNSTQWFHNENLISSQASSYFIDAATVDDSGEYRCQTNLSTLSDPVQLEVHVGWLLLQAPRWVFKEEDPIHLRCHSWKNTALHKVTYLQNGKDRKYFHHNSDFHIPKATLKDSGSYFCRGLVGSKNVSSETVNITITQGLAVSTISSFS | increased further | High levels | –
2 | CD16b/S197P: Human CD16b (FcγRIIIb, SEQ ID NO:2, NA1 variant) with serine-197 substituted by proline; expressed in HEK293 cells (protein, listed as Homo sapiens) MWQLLLPTALLLLVSAGMRTEDLPKAVVFLEPQWYRVLEKDSVTLKCQGAYSPEDNSTQWFHNENLISSQASSYFIDAATVDDSGEYRCQTNLSTLSDPVQLEVHVGWLLLQAPRWVFKEEDPIHLRCHSWKNTALHKVTYLQNGKDRKYFHHNSDFHIPKATLKDSGSYFCRGLVGSKNVSSETVNITITQGLAVPTISSFS | markedly lower | markedly lower | similarly down-regulated

From patent US11370825B2, “Polypeptides, cells, and methods involving engineered CD16” (Regents of the University of Minnesota, priority 2014, dated 2022)
